In US20240002497A1 (Merck Sharp & Dohme, published 2024):

Columns and labels:
[1] = molecular target: T1, huNav1.7α + β1-β2-β3 (human Nav1.7α co-expressed with human Navβ1, Navβ2 and Navβ3 on cells) (human); assay: binding FACS, CHO FlpIn cells
T1 construct: also called huNav1.7-beta1-beta2-beta3; CHO FlpIn huNav1.7α + β1-β2-β3
Summary of the method: (§1)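 Assessment used purified FLAG3-tagged ISVD incubated on cells for 30 minutes at 4° C in PBS containing 10% FBS and NaN₃, with cells washed between steps. Propidium iodide (1 μg/mL) staining removed dead cells from analysis.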

[2] = molecular target: T2, rhNav1.7α + β1-β2-β3 (rhesus Nav1.7α co-expressed with Navβ1, Navβ2 and Navβ3 on cells) (rhesus monkey (α subunit); β subunits …); assay: binding FACS, CHO FlpIn cells
T2 construct: also called rhNav1.7-beta1-beta2-beta3; CHO FlpIn rhNav1.7α + β1-β2-β3
Summary of the method: as §1

[3] = molecular target: T3, huNav1.7α+β1 (human, UniProt Q15858 1-1988; Q07699 19-218); assay: binding FACS, HEKa/β1 cells
T3 construct: also called huNav1.7-beta1; HEKa/β1
Method: (§2) Binding of the ISVDs to cell-expressed Nav1.7α was detected via murine anti-Flag (Sigma, catalog #F1804). Briefly, cells were resuspended in FACS buffer (PBS, 10% FBS, NaN₃) and transferred to a 96-well V-bottom plate at 1×10^5 cells/well. Purified FLAG3-tagged ISVD was diluted in FACS buffer and added to the cells for 30 minutes at 4° C. […] Prior to the read-out, the samples were resuspended in 1 μg/mL propidium iodide (Sigma, catalog #P4170) to exclude dead cells. Between each step, the cells were centrifuged for 5 minutes at 200 grams and washed with 100 μL/well FACS buffer.

[4] = molecular target: T4, huNav1.7α + β1-β2-β3 (human, UniProt Q15858 1-1988; A5A6L6 19-218; O60939 30-215; Q2KI11 23-215); assay: binding FACS, CHO FlpIn cells
T4 construct: Cell line (CHO FlpIn, HEK FlpIn, transient HEK293T) is named under assay; also called huNav1.7-beta1-beta2-beta3; human Nav1.7α with Navβ1, Navβ2 and Navβ3
Summary of the method: as §1

[5] = molecular target: T5, huNav1.7α + β1 (HEKa/β1) (human, UniProt Q15858 1-1988; Q07699 19-218); assay: binding FACS, HEKa/β1 cells
T5 construct: also called HEKa/β1 huNav1.7α
Method: as §2

| Binder | Bmax relative to '535 [3] [%] | EC50 [3] [nM] | EC50 [4] [nM] | EC50 [5] [nM] | other results |
| --- | --- | --- | --- | --- | --- |
| F010301865 (VHH, also called F0103387G04(L11V, A12V, K33R, R39Q, S50Y, S56D, T60A, W78V, S79Y, T83R, V89L, N93R)) VHH: EVQLVESGGGVVQPGGSLRLSCAASGPVFNINRMAWYRQAPGKQRELVAYVTPTGDISYADSVKGRFTISRDGSKRVYLQMNSLRPEDTALYYCRALLQPDSYSNTRTYWGQGTLVTVSA | – | – | – | – | Bmax [1]: 100%; EC50 [1]: 20 nM; Bmax [2]: 100%; EC50 [2]: 11 nM |
| F010301055 (VHH, vs F0103265A11: S53W, T57V) VHH: EVQLVESGGGLVQPGGSLRLSCAASGMLFNANTQGWYRQAPGKQRELVAFIFWGGYVNYVDSVKGRFTISRDNAKRTMYLQMNSLKPEDSAIYYCSLSRYLGQGTLVTVSS | 117 | 4.4 | – | – | – |
| F010301099 (VHH, vs F0103265A11: Y56W, T57V, N58T) VHH: EVQLVESGGGLVQPGGSLRLSCAASGMLFNANTQGWYRQAPGKQRELVAFIFSGGWVTYVDSVKGRFTISRDNAKRTMYLQMNSLKPEDSAIYYCSLSRYLGQGTLVTVSS | 87 | 7.4 | – | – | – |
| F010301126 (VHH, vs F0103265A11: A31R, T57V, N58T, V60N) VHH: EVQLVESGGGLVQPGGSLRLSCAASGMLFNRNTQGWYRQAPGKQRELVAFIFSGGYVTYNDSVKGRFTISRDNAKRTMYLQMNSLKPEDSAIYYCSLSRYLGQGTLVTVSS | 118 | 5.6 | – | – | – |
| F010301111 (VHH, vs F0103265A11: T57V, V60N, S93A) VHH: EVQLVESGGGLVQPGGSLRLSCAASGMLFNANTQGWYRQAPGKQRELVAFIFSGGYVNYNDSVKGRFTISRDNAKRTMYLQMNSLKPEDSAIYYCALSRYLGQGTLVTVSS | 99 | 5.4 | – | – | – |
| F010301113 (VHH, vs F0103265A11: A31R, V60N, R101V, L103Q) VHH: EVQLVESGGGLVQPGGSLRLSCAASGMLFNRNTQGWYRQAPGKQRELVAFIFSGGYTNYNDSVKGRFTISRDNAKRTMYLQMNSLKPEDSAIYYCSLSVYQGQGTLVTVSS | 111 | 5.7 | – | – | – |
| F010301139 (VHH, vs F0103265A11: A31R, I51W, T57V, V60N, L103Q) VHH: EVQLVESGGGLVQPGGSLRLSCAASGMLFNRNTQGWYRQAPGKQRELVAFWFSGGYVNYNDSVKGRFTISRDNAKRTMYLQMNSLKPEDSAIYYCSLSRYQGQGTLVTVSS | 117 | 4.7 | – | – | – |
| F010301188 (VHH, vs F0103265A11: A31R, V60N, L103Q) VHH: EVQLVESGGGLVQPGGSLRLSCAASGMLFNRNTQGWYRQAPGKQRELVAFIFSGGYTNYNDSVKGRFTISRDNAKRTMYLQMNSLKPEDSAIYYCSLSRYQGQGTLVTVSS | 104 | 5.1 | – | – | – |
| F010301138 (VHH, vs F0103265A11: N30Y, V60N, S93A, L103Q) VHH: EVQLVESGGGLVQPGGSLRLSCAASGMLFYANTQGWYRQAPGKQRELVAFIFSGGYTNYNDSVKGRFTISRDNAKRTMYLQMNSLKPEDSAIYYCALSRYQGQGTLVTVSS | 107 | 9.7 | – | – | – |
| F010301059 (VHH, vs F0103265A11: T57V, V60N, S93A, L103Q) VHH: EVQLVESGGGLVQPGGSLRLSCAASGMLFNANTQGWYRQAPGKQRELVAFIFSGGYVNYNDSVKGRFTISRDNAKRTMYLQMNSLKPEDSAIYYCALSRYQGQGTLVTVSS | 99 | 5.4 | – | – | – |
| F010301175 (VHH, vs F0103265A11: A31R, N58T) VHH: EVQLVESGGGLVQPGGSLRLSCAASGMLFNRNTQGWYRQAPGKQRELVAFIFSGGYTTYVDSVKGRFTISRDNAKRTMYLQMNSLKPEDSAIYYCSLSRYLGQGTLVTVSS | 111 | 5.4 | – | – | – |
| F010301232 (VHH, vs F0103265A11: A31R, N58T, S93A, L103Q) VHH: EVQLVESGGGLVQPGGSLRLSCAASGMLFNRNTQGWYRQAPGKQRELVAFIFSGGYTTYVDSVKGRFTISRDNAKRTMYLQMNSLKPEDSAIYYCALSRYQGQGTLVTVSS | 112 | 9.3 | – | – | – |
| F010301567 (VHH, F29Y vs F0103362B08 (Kabat)) VHH: EVQLVESGGGLVQAGGSLRLSCAASVRPYSTSAMGWFRQAPEKEREAVAGILWNGIVTYYADSVKGRFTISRDNAKNEVYLQMNKLKPEDTAVYYCALDRDYGGRSFSAYEYEYWGQGTLVTVSS | – | – | 110 | 24 | – |
| F010301568 (VHH, G35T vs F0103362B08 (Kabat)) VHH: EVQLVESGGGLVQAGGSLRLSCAASVRPFSTSAMTWFRQAPEKEREAVAGILWNGIVTYYADSVKGRFTISRDNAKNEVYLQMNKLKPEDTAVYYCALDRDYGGRSFSAYEYEYWGQGTLVTVSS | – | – | 310 | 110 | – |
| F010301574 (VHH, G35A vs F0103362B08 (Kabat)) VHH: EVQLVESGGGLVQAGGSLRLSCAASVRPFSTSAMAWFRQAPEKEREAVAGILWNGIVTYYADSVKGRFTISRDNAKNEVYLQMNKLKPEDTAVYYCALDRDYGGRSFSAYEYEYWGQGTLVTVSS | – | – | 100 | 29 | – |
| F010301578 (VHH, S30G vs F0103362B08 (Kabat)) VHH: EVQLVESGGGLVQAGGSLRLSCAASVRPFGTSAMGWFRQAPEKEREAVAGILWNGIVTYYADSVKGRFTISRDNAKNEVYLQMNKLKPEDTAVYYCALDRDYGGRSFSAYEYEYWGQGTLVTVSS | – | – | 120 | 30 | – |

The next lines start with results.

| Bmax relative to '535 [3] [%] | EC50 [3] [nM] | EC50 [4] [nM] | EC50 [5] [nM] | Binder | other results |
| --- | --- | --- | --- | --- | --- |
| – | – | 120 | 41 | F010301589 (VHH, I55P vs F0103362B08 (Kabat)) VHH: EVQLVESGGGLVQAGGSLRLSCAASVRPFSTSAMGWFRQAPEKEREAVAGILWNGPVTYYADSVKGRFTISRDNAKNEVYLQMNKLKPEDTAVYYCALDRDYGGRSFSAYEYEYWGQGTLVTVSS | – |
| – | – | 110 | 42 | F010301584 (VHH, W52aT vs F0103362B08 (Kabat)) VHH: EVQLVESGGGLVQAGGSLRLSCAASVRPFSTSAMGWFRQAPEKEREAVAGILTNGIVTYYADSVKGRFTISRDNAKNEVYLQMNKLKPEDTAVYYCALDRDYGGRSFSAYEYEYWGQGTLVTVSS | – |
| – | – | 130 | 36 | F010301579 (VHH, R27K vs F0103362B08 (Kabat)) VHH: EVQLVESGGGLVQAGGSLRLSCAASVKPFSTSAMGWFRQAPEKEREAVAGILWNGIVTYYADSVKGRFTISRDNAKNEVYLQMNKLKPEDTAVYYCALDRDYGGRSFSAYEYEYWGQGTLVTVSS | – |
| – | – | 93 | 43 | F010301591 (VHH, G99K vs F0103362B08 (Kabat)) VHH: EVQLVESGGGLVQAGGSLRLSCAASVRPFSTSAMGWFRQAPEKEREAVAGILWNGIVTYYADSVKGRFTISRDNAKNEVYLQMNKLKPEDTAVYYCALDRDYKGRSFSAYEYEYWGQGTLVTVSS | – |
| – | – | 200 | 67 | F010301592 (VHH, R100aS vs F0103362B08 (Kabat)) VHH: EVQLVESGGGLVQAGGSLRLSCAASVRPFSTSAMGWFRQAPEKEREAVAGILWNGIVTYYADSVKGRFTISRDNAKNEVYLQMNKLKPEDTAVYYCALDRDYGGSSFSAYEYEYWGQGTLVTVSS | – |
| – | – | 170 | 51 | F010301586 (VHH, W52aA vs F0103362B08 (Kabat)) VHH: EVQLVESGGGLVQAGGSLRLSCAASVRPFSTSAMGWFRQAPEKEREAVAGILANGIVTYYADSVKGRFTISRDNAKNEVYLQMNKLKPEDTAVYYCALDRDYGGRSFSAYEYEYWGQGTLVTVSS | – |
| – | – | 110 | 53 | F010301585 (VHH, V56P vs F0103362B08 (Kabat)) VHH: EVQLVESGGGLVQAGGSLRLSCAASVRPFSTSAMGWFRQAPEKEREAVAGILWNGIPTYYADSVKGRFTISRDNAKNEVYLQMNKLKPEDTAVYYCALDRDYGGRSFSAYEYEYWGQGTLVTVSS | – |
| – | – | 180 | 35 | F010301580 (VHH, R27T vs F0103362B08 (Kabat)) VHH: EVQLVESGGGLVQAGGSLRLSCAASVTPFSTSAMGWFRQAPEKEREAVAGILWNGIVTYYADSVKGRFTISRDNAKNEVYLQMNKLKPEDTAVYYCALDRDYGGRSFSAYEYEYWGQGTLVTVSS | – |
